Reference: US12297449, “Engineered CAS9 systems for eukaryotic genome modification” (Sigma-Aldrich Co. LLC)

Molecular target: T1, LrhCas9-NLS (Lactobacillus rhamnosus)
T1 chain: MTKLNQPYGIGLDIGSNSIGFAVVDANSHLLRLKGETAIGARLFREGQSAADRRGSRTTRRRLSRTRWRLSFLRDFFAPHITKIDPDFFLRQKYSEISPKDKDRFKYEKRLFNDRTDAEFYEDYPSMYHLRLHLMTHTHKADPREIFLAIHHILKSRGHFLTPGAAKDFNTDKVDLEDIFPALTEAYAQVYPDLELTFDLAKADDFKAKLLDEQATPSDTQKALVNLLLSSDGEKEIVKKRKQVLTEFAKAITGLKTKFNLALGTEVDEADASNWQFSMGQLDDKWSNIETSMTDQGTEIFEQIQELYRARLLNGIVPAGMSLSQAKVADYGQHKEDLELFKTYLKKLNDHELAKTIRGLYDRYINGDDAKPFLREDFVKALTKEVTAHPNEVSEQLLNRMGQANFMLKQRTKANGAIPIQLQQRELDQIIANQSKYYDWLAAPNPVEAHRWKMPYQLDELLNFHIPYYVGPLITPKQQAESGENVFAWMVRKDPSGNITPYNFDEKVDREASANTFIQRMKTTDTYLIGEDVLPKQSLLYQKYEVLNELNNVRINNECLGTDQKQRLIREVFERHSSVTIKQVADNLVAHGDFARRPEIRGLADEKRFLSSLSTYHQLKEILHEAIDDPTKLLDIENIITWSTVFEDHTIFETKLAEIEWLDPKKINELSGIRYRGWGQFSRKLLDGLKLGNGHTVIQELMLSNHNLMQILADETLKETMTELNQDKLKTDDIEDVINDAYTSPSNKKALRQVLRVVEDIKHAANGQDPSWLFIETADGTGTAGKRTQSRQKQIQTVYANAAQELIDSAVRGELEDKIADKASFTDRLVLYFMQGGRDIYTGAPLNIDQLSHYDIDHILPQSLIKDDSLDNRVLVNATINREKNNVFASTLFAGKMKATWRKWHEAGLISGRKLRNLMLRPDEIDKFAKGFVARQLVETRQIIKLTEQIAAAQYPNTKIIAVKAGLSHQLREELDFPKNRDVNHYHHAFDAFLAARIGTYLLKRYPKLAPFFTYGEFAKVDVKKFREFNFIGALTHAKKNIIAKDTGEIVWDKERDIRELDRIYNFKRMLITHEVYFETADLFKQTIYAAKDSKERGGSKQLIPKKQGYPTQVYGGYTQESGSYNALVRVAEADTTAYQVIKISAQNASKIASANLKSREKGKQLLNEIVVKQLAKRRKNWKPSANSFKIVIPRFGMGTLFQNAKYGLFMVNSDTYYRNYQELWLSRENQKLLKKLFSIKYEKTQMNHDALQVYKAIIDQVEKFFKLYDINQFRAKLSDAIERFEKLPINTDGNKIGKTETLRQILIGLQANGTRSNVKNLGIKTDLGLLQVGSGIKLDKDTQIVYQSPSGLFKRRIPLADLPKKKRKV
Assay: cell_activity; PAM NGAAA; K562
Conditions: tags: C-terminal SV40 NLS

B1: Lrh POR target 1 sgRNA ; POR target 1 (ssRNA ; dsDNA)
RNA: GCUCGUACUGGCGAAUGCUGUCUCAGGUAGAUGUCAGAUCAAUCAGAAAUGAUUGAUCUGACAUCUACGAGUUGAGAUCAAACAAAGCUUCAGCUGAGUUUCAAUUUCUGAGCCCAUGUUGGGCCAUACAUAUGCCACCCGAGUGCAAAUCGGGUGGCUUUUUUU
DNA 1: GCTCGTACTGGCGAATGCTGGAAA
DNA 2: TTTCCAGCATTCGCCAGTACGAGC
  activity: 26.7 % indel

B2: Lrh CAR target 2 sgRNA ; CAR target 2 (ssRNA ; dsDNA)
RNA: GUGAGAGUCUCCUCCCCAAUGGUCUCAGGUAGAUGUCAGAUCAAUCAGAAAUGAUUGAUCUGACAUCUACGAGUUGAGAUCAAACAAAGCUUCAGCUGAGUUUCAAUUUCUGAGCCCAUGUUGGGCCAUACAUAUGCCACCCGAGUGCAAAUCGGGUGGCUUUUUUU
DNA 1: GTGAGAGTCTCCTCCCCAATGGGAAA
DNA 2: TTTCCCATTGGGGAGGAGACTCTCAC
  activity: 27 % indel
